According to the supplement of paper PMC9170038:

System: MS2 coat protein
Experiment: apparent KD of MS2 coat protein; designed switch direction (-1 OFF switch, 1 ON switch): -1; higher = weaker reporter binding
In short: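 Each step of the titration lasted 0.8–1.5 h at the lowest concentration and 10–20 min at the highest. The protein, SNAP-549-labelled MS2 coat protein, went from 0.7 or 1.5 nM doubling to 3 µM over RNA switches transcribed on Illumina chips by stalled E. coli RNA polymerase. Normalised cluster fluorescence was curve-fitted, and the per-design median over clusters is given as apparent KD.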

[1] = input ligand: microRNA oligo, concentration not stated
[2] = Eterna round: R95, input ligand: FMN 200 uM
[3] = Eterna round: R95, input ligand: microRNA oligo, concentration not stated
[4] = Eterna round: R95, input ligand: none

Sequence	apparent KD of MS2 coat protein (input ligand: FMN 200 uM)	apparent KD of MS2 coat protein [1]	apparent KD of MS2 coat protein (input ligand: none)	apparent KD of MS2 coat protein [2]	apparent KD of MS2 coat protein [3]	apparent KD of MS2 coat protein [4]
AGUACUAACACGAAAGUGUUAGUUCAAUAAGCUUGUGAAACAUGAGGAUCACCCAUGUCCUCAUAAGCUCGUCUUAU [salish99_TOv2_r3_040] (Eterna round: R96, puzzle: Sensor v3, turn-off variant 2)	15.2 nM	461 nM	17.5 nM			
AGAGUGCUGCGAGGAUAUACAUGAGGAUCACCCAUGUGGUCCUGUGAGGCAAAGCCUCACAGGAUGUAGAAGGCGCAGUACUCA [Mat - Exclusion NG 2 - Mod of JL - D46] (Eterna round: R96, puzzle: Exclusion NG 2)	57 nM	14.2 nM	19.9 nM			
GGCCCGGGAGGAUAUACAUGAGGAUCACCCAUGUUGAGCUUGAGGAUCUUCGAGUUCGGUAGAAGGCCCGGGCC [-35.1, -32.9 kcal, 22% A, 1, 0] (Eterna round: R97, puzzle: Exclusion 3)	201 nM		27.2 nM			
AUACUCGAAGGAUAUGUGUAAGAGUACAUGAGGAUCACCCAUGUCCUAAGCACUUGGACGGCAGAAGGUCGACUGU [Eternabot (L2) Solution 36] (Eterna round: R97, puzzle: Exclusion 5)	57.7 nM		25.1 nM			
AGUCAGGCGGUAGGAUAUCCAUAUCGAGUGACCCUUUCAUAACAUGAGGAUCACCCAUGUCGGUGGGAGAAGGGCCGUACGGCG [JL ViennaUCT Atra mod 4] (Eterna round: R96, puzzle: Exclusion NG 2)	203 nM	84.2 nM	103 nM			
CGCGACUCAGGAUAUACAUGAGGAUCACCCAUGUGGAACGACUGGGUCGAUAAAAGGUGUAGAAGGGAGGAAAA [Invebies] (puzzle: Exclusion 3)				15.4 nM	12.6 nM	15.4 nM
AGUUGCGCAGGAUAUACAUGAGGAUCACCCAUGUGAGAGAAAUAAGUGAGGAAGAAAAGUAGAAGGGCGUGACA [Mat - Exclusion 3 - Mod of Salish D74] (puzzle: Exclusion 3)				236 nM	40.6 nM	47.1 nM
CGUGACUCAGGAUAUCUAUAGUAUCACAUGAGGAUCACCCAUGUCCAGCGAAAGCUGGAGGGAGAAGGGAGUCACG [Fiskers Ex 5 - 42] (puzzle: Exclusion 5)				71.3 nM	130 nM	229 nM
GAUUAUGCGAGCUUUAGGGACAUGAGGAUCACCCAUGUUCGUCUUAUUAGUCUGAAUACGCUGACAUACCUAAAUCU [JMF 95] (puzzle: Sensor v3, turn-off variant 1)				16.3 nM	19.5 nM	19.2 nM
UAAAAGGUAGGAUAUACGAAAAAAAAGGGUAGAAAAAAAACACAUGAGGAUCACCCAUGUAGAAGGACCAAAAC [salish99_ex2_r3_047] (puzzle: Exclusion 2)				103 nM	33.2 nM	30.3 nM
UGAUCACAUGAGGAUCACCCAUGUCAGGAUAUCGUCACUGGAGCUGCGGCUCCAGUGACGAGAAGGGACAUAAU [E1/3-A3] (Eterna round: R97, puzzle: Exclusion 1)	50.8 nM		242 nM			
UUCAUGUGAGGAUAUUAGUAGUAAAUGAAUAAAAUUAUUACUGAGAAGGUACAUGAGGAUCACCCAUGUUCCUU [Mat - Exclusion 4 - Eli Mod - D21] (Eterna round: R97, puzzle: Exclusion 4)	20.1 nM		14.6 nM			
AGUACUAACACGAAAGUGUUAGUACAAUAAGCUUGUGAAACAUGAGGAUCACCCAUGUCCUCAUAAGCUCGUCUUAG [salish99_TOv2_r3_003] (puzzle: Sensor v3, turn-off variant 2)				16.4 nM	280 nM	15.4 nM
UUAGUUUUGCAAGGAUAUGUUUAUUUAUAGUUGCCUCUUACAUGAGGAUCACCCAUGUUUUACUUACAGAAGGUGCAAUGAUUU [JR_ExcNG2_Sub034] (Eterna round: R96, puzzle: Exclusion NG 2)		138 nM				
ACAUGAGGAUCACCCAUGUCCGUCUGAUCUGUCUCGGCUGUCGAGGAUAUAGCCCGGUAUCCGCGCUAGAAGGUGGGAGUCGGA [Aenatbe mod 100] (Eterna round: R96, puzzle: Exclusion NG 3)	34.9 nM	33.4 nM	42 nM			
CGGUAAAUAGGAUAUACAUGAGGAUCACCCAUGUUCCAUAGCACUCGGAGGGUUCCCAGUAGAAGGGUUGGCCU [EX3 C.17] (Eterna round: R97, puzzle: Exclusion 3)	16 nM		19.4 nM			
AGUCGAAAGACAAAAACAGACAUGAGGAUCACCCAUGUAAAGGGUGAACAAGCCACCCGCUCGUCUUAAAAAAAAAA [Mat - Sensor v2 - JL mod - D25] (Eterna round: R96, puzzle: Sensor v2, turn-off variant)	136 nM	69.2 nM	114 nM			

Sequence	apparent KD of MS2 coat protein (input ligand: FMN 200 uM)	apparent KD of MS2 coat protein [1]	apparent KD of MS2 coat protein (input ligand: none)	apparent KD of MS2 coat protein [2]	apparent KD of MS2 coat protein [3]	apparent KD of MS2 coat protein [4]
AGGUCACAUGAGGAUCACCCAUGUGAGGAUAUUUACUCAAGAGCUUCGGCUCUCAGGUGAAGAAGGCGCAAUGA [EX1 #54] (Eterna round: R97, puzzle: Exclusion 1)	27.2 nM		30 nM			
GUCAGCUCGUCAGGAUAUACAUGAUAGAUCGAUUAAUUAAUUAAUUUAACAUGAGGAUCACCCAUGUAGAAGGGACGAGCUGAU [ENG2/1-B2] (Eterna round: R96, puzzle: Exclusion NG 2)		59.2 nM				
GGUACUCAAAGAGUACCAAUACGAACAUGAGGAUCACCCAUGUAGGAUAUGCUACUCAAAGAGUAGCAGAAGGACGUGAACCCU [Far Half Aptamer] (Eterna round: R96, puzzle: Exclusion NG 3)	164 nM	26.5 nM	40.5 nM			
UAAUGCAGGUAAAGAUUCUACAUGAGGAUCACCCAUGUGCUCGUCUUAUAAAGUACUAUCACGAAAGUGAUAGUACA [Mat - Sensor v3 - turn-off var 1 - Eli Mod - D101] (puzzle: Sensor v3, turn-off variant 1)				27.6 nM	220 nM	24.8 nM
UAUAUAUAGUAAGGAUAUGUAUAUAUUAUAUAAACAGAAGGUACUGACAUGAGGAUCACCCAUGUUUUAGUGUGGGCAUGUAGA [JMF's solution 60] (Eterna round: R96, puzzle: Exclusion NG 1)		53.3 nM				
ACGCGUGGCUAGGAUAUGCAGCUAUCUGGCCAGGCAGAAGGAGCCACAUGAGGAUCACCCAUGUGGUGAUCCUC [eternacac ex6r4 sub3] (Eterna round: R97, puzzle: Exclusion 6)	12.1 nM		11.9 nM			
CGGGCAUGAGGAUAUCGAGGUUAGUACAUGAGGAUCACCCAUGUUAUCCAGGUGUCGGUUCGAGAAGGCAUGGCCG [LRO-Ex5-11] (puzzle: Exclusion 5)				464 nM	230 nM	340 nM
CUGAGCAGACGAAGAUCCAACAUGAGGAUCACCCAUGUCUCAAAAGCUUUUUGCUUGUCUUAUCCUUCCCUGCUCUC [Isbies] (puzzle: Sensor v3, turn-off variant 1)				14.3 nM	207 nM	12.9 nM
AAAUGCAAGUAAAGAUCUUACAUGAGGAUCACCCAUGUGCUCGUCUUAUAAAGUACUAUCACGAAAGUGAUAGUACA [Sensor 3, v1 - 27] (puzzle: Sensor v3, turn-off variant 1)				18.5 nM	76.9 nM	19.3 nM
UUUAAUUUUUUUUUUUUACAAGCUUUUUGCUCGUCUUAUACAUGAGGAUCACCCAUGUGAAUGGGAGAUAAAUUAUC [JMF 18] (puzzle: Sensor v3, turn-off variant 2)				356 nM	508 nM	456 nM
UGAGCUUGUGUGAGGAUAUUUCGAGUGAAAGCUUGAGAGAAGGCACAUGAGGAUCACCCAUGUAAGCGAGUUCG [-26.1, -24 kcal, A 28%, 1bis-1] (Eterna round: R97, puzzle: Brourd's mod of Exclusion 4)	84.2 nM		86.8 nM			
CGUGCGUAUGUGAGGAUAUGCUGGUCCUUGGCUCGGCAGAAGGCACAUGAGGAUCACCCAUGUGGUGUCGUACA [salish99_Bmod_ex4_070] (puzzle: Brourd's mod of Exclusion 4)					69.4 nM	
AAGAAGAUCGGAGGAUAUGGAGCUGAAACGGCGCUAGAAGGCCGUCUAGUGUAACAUGAGGAUCACCCAUGUAGGGACCUCUAA [EX ng 1 4.2] (Eterna round: R96, puzzle: Exclusion NG 1)	944 nM	633 nM	558 nM			
GUCUACCAGCUAGGAUAUGCAGUACAGUAAAAUGUAGAAGGAGCACGAUCCAGACAUGAGGAUCACCCAUGUGGGCGGUAGGCA [Vebiena] (Eterna round: R96, puzzle: Exclusion NG 1)	19.8 nM	9.52 nM	17.3 nM			
GCUGGACAUGAGGAUCACCCAUGUGAGGAUAUCGGCUGGUACGUGUUGGCUGGCAUCUCGAGAAGGCACAUAGU [Exclusion 1 V63] (puzzle: Exclusion 1)					28.2 nM	
GCAGCGUAUGUAGGAUAUCGGUCAGUUUCUGAUCGAGAAGGACAUGAGGAUCACCCAUGUGCGGUCAUGCGUGAGCAUGGCUGC [JL ENG1 3.74] (Eterna round: R96, puzzle: Exclusion NG 1)	268 nM	31.3 nM	41.2 nM			
